# Measured values from US20230242902A1, “A HIGHLY ERROR-PRONE […] R[…] FOR TARGETED CONTINUOUS EVOLUTION IN VIVO” (The Regents of the University of California, priority 2017, published 2023).
# Numbering of substitutions follows the chain as printed. In names and notes the source's numbering stands.
# B1: G410F: TP-DNAP1 variant (protein)
# chain: MDYKDKALNDLRNVYADFDSLPLDFRQILIKDRATLLQKEDVEKKILERQEDAKKYAEYLKQSEIPERISLPNIKRHKGVSISFEETSEDMVLEPRPFIFDGLNIRCFRRETIFSLKNKILNMVKESSSFKNVSRQSVSFMYFKIFNKGKVIASTKSVNIYEDKIDERLEDLCNNFDDVLKKIIDVTYGYESLFVSETYSYVIFYAKSIYFPQPRCVNNWGNNIPNILTFDSFKLFTANKNNVSCIKQCSRFLWQKDFNTLEEMIEYKNGNICIVTPQLHINDVRDIKSFNDIRLYSESPIKTFSVIDNTITYLFYFKEHLGVIFNITKSRHDRRVTKFSPLSKFSDVKNITVCFDIESYFDPEKESNQVNIPFICCASIIYNKVIGNIVDFEGRDCVAQMIEYVVDICFELNISSVELIAHNGGGYDFHYILSSMYNPAAIKNILIRNNSFISFNFAHDGVKFSVKDSYSFLLCSLANASKAFLNEETFKKTDFPHHDLKTADDLYKVYKEWSSVNTEINHVVEKEKLLITSEHIVNFTKNDKSKTLIEWSKDYCRNDVLVLSKVWLEFKNAVEDIFNCELVDQTMTLAGLSYKLFQANMPFDVELRHPNKEDYFNMREALIGGRCISVNGIYKDVLCLDVKSLYPASMAFYDQPYGSFKRVSSRPKDELGIYYVRVTPNRNNKSNFFPIRSHNKITYNNFEESTYIAWYTNVDIDIGLSEGHNIEYIPFDSYGNIGYSWSKKGKIFEKYIKDVLYKLKIKYEKQNNKVKRNVIKIIMNSLWGKFAQKWVNFEYFIKSEDDIDFESEEAYKIWDTDFMLIKKIKESTYSSKPIQNGVFTLSWARYHMKSIWDAGAKEGAECIYSDTDSIFVHKEHFKKNAKFMLNGLKVPIIGSEVGQLELECEFDKLLCAGKKQYMGFYTYFQDGKPCIKEKKRFKGIPSNYIIPELYAHLLSGADKEAKIQFLKFRREWGSVKGYIENKTVKAT
# B2: E411N: TP-DNAP1 variant (protein)
# chain: B1 chain with F410G, E411N
# B3: E411S: TP-DNAP1 variant (protein)
# chain: B1 chain with F410G, E411S
# B4: K612Q: TP-DNAP1 variant (protein)
# chain: B1 chain with F410G, K612Q
# B5: N611P, V897V: TP-DNAP1 variant (protein)
# chain: B1 chain with F410G, N611P
# B6: G410Y: TP-DNAP1 variant (protein)
# chain: B1 chain with F410Y
# B7: N291K: TP-DNAP1 variant (protein)
# chain: B1 chain with N291K, F410G
# B8: E411G: TP-DNAP1 variant (protein)
# chain: B1 chain with F410G, E411G
# B9: N413H: TP-DNAP1 variant (protein)
# chain: B1 chain with F410G, N413H
# B10: N611Q: TP-DNAP1 variant (protein)
# chain: B1 chain with F410G, N611Q
# B11: S415V: TP-DNAP1 variant (protein)
# chain: B1 chain with F410G, S415V
# B12: N291M: TP-DNAP1 variant (protein)
# chain: B1 chain with N291M, F410G
# B13: D460G: TP-DNAP1 variant (protein)
# chain: B1 chain with F410G, D460G
# B14: G410T: TP-DNAP1 variant (protein)
# chain: B1 chain with F410T
# B15: K612A: TP-DNAP1 variant (protein)
# chain: B1 chain with F410G, K612A
# B16: N413T: TP-DNAP1 variant (protein)
# chain: B1 chain with F410G, N413T
# B17: E411L: TP-DNAP1 variant (protein)
# chain: B1 chain with F410G, E411L
# B18: N413E: TP-DNAP1 variant (protein)
# chain: B1 chain with F410G, N413E
# B19: K612V: TP-DNAP1 variant (protein)
# chain: B1 chain with F410G, K612V
# B20: E411K: TP-DNAP1 variant (protein)
# chain: B1 chain with F410G, E411K
# B21: E411A: TP-DNAP1 variant (protein)
# chain: B1 chain with F410G, E411A
# B22: E613D: TP-DNAP1 variant (protein)
# chain: B1 chain with F410G, E613D
# B23: E411D: TP-DNAP1 variant (protein)
# chain: B1 chain with F410G, E411D
# B24: G426T: TP-DNAP1 variant (protein)
# chain: B1 chain with F410G, G426T
# B25: I414F: TP-DNAP1 variant (protein)
# chain: B1 chain with F410G, I414F
# B26: G461K: TP-DNAP1 variant (protein)
# chain: B1 chain with F410G, G461K
# B27: L412V: TP-DNAP1 variant (protein)
# chain: B1 chain with F410G, L412V
# B28: E411R: TP-DNAP1 variant (protein)
# chain: B1 chain with F410G, E411R
# B29: G410W: TP-DNAP1 variant (protein)
# chain: B1 chain with F410W
# B30: G410S: TP-DNAP1 variant (protein)
# chain: B1 chain with F410S
# B31: K612S: TP-DNAP1 variant (protein)
# chain: B1 chain with F410G, K612S
# Test system: p1
# Assay: p1 copy number by p1-encoded mKate2 fluorescence
# Type: cell-based, S. cerevisiae
# Details: OR-Y24, measured in triplicate
# Experimental: A calibration curve was established to correlate p1 copy number, determined via quantitative PCR (qPCR), with fluorescence of p1-encoded mKate2 (Table 1). Five TP-DNAP1 variants representing a wide range of copy numbers were transformed into ORY24 and passaged until w.t. p1 was displaced. The five OR-Y24 strains were grown to saturation, diluted 1:10,000 to mimic p1 fluctuation tests, and grown in triplicate 100 μL cultures and duplicate 40 mL cultures. 100 μL saturated cultures were subject to fluorescence measurement of mKate2 (ex/em=561 nm/620 nm, bandwidth=15 nm) on a flow cytometer (Invitrogen Attune NxT). Whole-cell DNA extracts were prepared from 40 mL cultures and used as templates for qPCR measurement of p1-encoded leu2 (Q180*), as described previously (Ravikumar et al., 2014). p1-encoded LEU2 was PCR amplified with qPCR-Leu2F and qPCR Leu2R; and genomic LEU3 was PCR amplified with qPCR-Leu3F and qPCR-Leu3R using SyBR Green (Fisher Scientific) master mix.
# To assay p1 copy number for large-scale p1 fluctuation tests, additional replicates of OR-Y24 strains were grown from the 1:10,000 dilution in triplicate and saturated cultures were subject to fluorescence measurement via flow cytometry. Fluorescence measurements were converted to copy number with the linear calibration curve.
# To assay relative p1 copy number for small-scale p1 fluctuation tests, an additional 200 μL culture of OR-Y24 strains were grown from the 1:10,000 dilution. 200 μL saturated cultures were subject to an OD600 measurement and fluorescence measurement of mKate2 (ex/em=588 nm/633 nm), using a microplate reader (TECAN Infinite M200 PRO). A linear relationship was assumed between p1 copy number and OD600-normalized mKate2 fluorescence. Copy numbers were calculated from normalization to a w.t. TP-DNAP1 control.
# For a few large-scale p1 fluctuation tests, p1 copy number was assayed by the method of small scale p1 fluctuation tests (i.e. microplate reader measurement). For these experiments, mutant TP-DNAP1 p1 copy numbers were calculated by normalization to a w.t. TP-DNAP1 control. The copy number of this control was assumed to be the average w.t. TP-DNAP1 copy number from all large-scale p1 fluctuation tests that used flow cytometry measurements.
# TP-DNAP1 plasmids were isolated from these strains and subject to Sanger sequencing. 210 unique variants were identified and the corresponding plasmids were re-transformed into OR-Y24. Transformed strains were passaged in SC-UH until w.t. p1 was displaced, and subject to p1 copy number measurement in triplicate. Four high copy variants were directly subject to qPCR measurements for validation. To test the suppressor activity of the G410H mutation, which yields increased p1 copy number, this amino acid change was added to several low-activity TP-DNAP1 variants. p1 copy number was similarly assayed for these strains.
row,Molecule,Mean fold-increase over w.t. (p1 copy number)
1,B1,2.66 fold
2,B2,1.9 fold
3,B3,1.52 fold
4,B4,2.04 fold
5,B5,2.04 fold
6,B6,2.73 fold
7,B7,1.66 fold
8,B8,1.54 fold
9,B9,2.2 fold
10,B10,1.92 fold
11,B11,1.44 fold
12,B12,2.28 fold
13,B13,1.63 fold
14,B14,2.57 fold
15,B15,1.94 fold
16,B16,1.76 fold

row,Molecule,Mean fold-increase over w.t. (p1 copy number)
1,B17,2.22 fold
2,B18,2.62 fold
3,B19,1.85 fold
4,B20,2.39 fold
5,B21,2.08 fold
6,B22,1.82 fold
7,B23,2.32 fold
8,B24,1.22 fold
9,B25,1.29 fold
10,B26,2.15 fold
11,B27,2.21 fold
12,B28,2.07 fold
13,B29,2.5 fold
14,B30,2.27 fold
15,B31,1.75 fold
